Data reported in the nanobody polyreactivity screen of Harvey et al. (2022).

Assay: yeast display, Sf9 membrane polyspecificity reagent, FACS + sequencing; frameworks hold sequencing errors
How it was run: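 Using colony PCR, genes from sorted yeast display clones were amplified, then sequenced on MiSeq at 2 × 250 and filtered by CDR length. The clones had been stained with 10% biotinylated, detergent-solubilized Sf9 membrane reagent for 1 hour at 4 °C and sorted by FACS into low and high (top ~1%) gates on anti-HA and streptavidin fluorescence. Polyreactivity labels come from the gate of origin.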

QVQLVESGGGLVQARGSLRLSCAASGRILYSYAMGWYRQAPGKERELVASISLSGGRTYADSVKGRFTISRDNAKNTVYLQMNSLKPEDTAVYYCNDRIRTSRYLWPFDYWGQGTQVTVSS
polyreactivity (PSR sort gate): high polyreactivity

QVQLVESGGGLVQARGSLRLSCAASGRNFPSNAMGWYRQAPGKERELVPVITRGSRTKYADCVKGRFTISRDKAMNTVYLQMNSLKPEDSAVYYCAALGGLLYTQGHSEAYWGQGTQGTVSS
polyreactivity (PSR sort gate): low polyreactivity

QVQLVESGGGLVQARGSLRLSCAASGRTFKRYAMGWYRQAPGKERELVAAIAWSGTSTYYADSVKGRLTISRDNAKNTVYLQMNSLIPEDTAVYYCNTPHRSSSVRSYGYWGQGTQVSVSS
polyreactivity (PSR sort gate): high polyreactivity

QVQLVESGGGLVQARGSLRLSCAASGSIFAYNAMGWYRQAPGKERELVARISNRSGRTYYADSVKGRFTISRDNAKNTVYLLMNSLKPEDTAVYYCGVVAGLGTYRRYGYCGQGTQVTVSS
polyreactivity (PSR sort gate): high polyreactivity

QVQLVESGGGLVQARGSLRLSCAASGSIFINNTRGWYRQAPGIEREWVAAISITGGSTYYADSVKGRFTISRDNAKNSVYLQMNSLKPEDTAVDYCAADPLQLYDYNYWGQGTQVTVSS
polyreactivity (PSR sort gate): low polyreactivity

QVQLVESGGGLVQARGSLRLSCAASGSIFYGNTMGWYRQAPGKESEFVAAISYGGGGTYYADSVKGRFTISRDNAKNTVYLQMNILKPEDTAVYYCATDDPLYQINEQGMDYWGLGTQVTVSS
polyreactivity (PSR sort gate): low polyreactivity

QVQLVESGGGLVQARGSLRLSCAASGSTFHQYVMGWYRQAPGKESELVAAINSSGSSTYYADSVKGRFTISRDNAKNTVDLQMNSLKPEDTAVYYCARDGLRNPGGYGFWGQGTQVTVSS
polyreactivity (PSR sort gate): low polyreactivity

QVQLVESGGGLVQARGSLRLSCAASGSTFPYVMGWYRQAPWKERELVAAISQRTGSTYYADSVKGRFTISRDNAKNTVYLQMNSLNPEDTAVYYCAKPGYLRPSRYDYWGQGTQVTVSS
polyreactivity (PSR sort gate): high polyreactivity

QVQLVESGGGLVQARGSLRLSCAASGSTFRFNAMGRYRQAPGKEREFVAAIRFTGGSTYYADSVKGRFTISRDYAKNTVYLQMNSLKPEDTAVYYCNNADEYSNVEYDYWGQGTQVTVSS
polyreactivity (PSR sort gate): low polyreactivity

QVQLVESGGGLVQARGSLRLSCAASGSTFYYNTMGWYRQAPGKERELVAAITSSGGRTYYADSVKGRFTISRDNAKNTVYLQMNSLKPEDTAVYYCAAKRVGSTANRRVTKYDWGQGTQVTVSS
polyreactivity (PSR sort gate): high polyreactivity

QVQLVESGGGLVQARGSLRLSCAASGTIFASNAMGWLRKAPGKVRELVAAINSGGNTYADSVKGRFTITRDNAKNTVYVHMNSLKPEDTAVYYCAVVWNWCSGLSPGYPEFDYWGQGTQVTVSA
polyreactivity (PSR sort gate): low polyreactivity

QVQLVESGGGLVQARGSLRLSCAASVGTFGSNNMGCYRQAPGKDRELVAAITSGVSTNYADSVKGRFTITRYIAKNTVYLQMNSLKPEDTAVNYSAAGTQAHAYVVRPIEMDYWGQGTQVTVSS
polyreactivity (PSR sort gate): low polyreactivity

QVQLVESGGGLVQARGSLRLSCAASVRTICNNAMGWYREAPGKERELVAANTSTASRTYYADSEKGRFTISRDNAKNTVYLQMNSLKPEDTAVYYCNRVSHLDYYWGQGTQVTVSS
polyreactivity (PSR sort gate): high polyreactivity

QVQLVESGGGLVQARGSLRLSCASSGITLYFNTMGCYRQPPGKESELVASISGGSSTYYADSVKGRFTISRDNAKNTVYLQMNSLKPEDTAVYYCNAQGSLFRGWFDYDYWGLGTQVTVSS
polyreactivity (PSR sort gate): low polyreactivity

QVQLVESGGGLVQARGSLRLSCASSGSTFGGYAMGWYRQAPGKERELVPAITRSGGSTYYADSVKGRFTISRDNGKNTVYLQMNSLKPEDTAVYYCAARVPRGDRPGYHYAYYYWGQGTQVTVSS
polyreactivity (PSR sort gate): high polyreactivity

QVQLVESGGGLVQASGSLRLSCAASGFTFSQYDMGWNRQDHGKERELVAAISWNGGSTYYAESVKGRFTISRDNAKNTVYLQMNSLKPDDTAVYYCNRRWPFVRFYYWGQGTQVTVSS
polyreactivity (PSR sort gate): high polyreactivity

QVQLVESGGGLVQAVCSLRLSCAASGRTFHGNAMGWYRQAPGKERELVAAISYSGGRTYYADSVKGRFTISRDNAKNTVYLQMNSLKPEDTAVYYCAAWGSSYSFDYWGQGTQVTVSS
polyreactivity (PSR sort gate): high polyreactivity

QVQLVESGGGLVQAVGGLRLSCAASGSTFKRNTMGSYRQAPGKEMELVAAISRSGGSTYYADSVKGRFTISRDNAKNTVYLQMNSLKPEDTAVYYCNAYVSSYVGSRSYGLSPYDYWGQGTQVTVSS
polyreactivity (PSR sort gate): high polyreactivity

QVQLVESGGGLVQAVGRLRLSCAASGSNFQYYAMGWYRQAPGKERELVAAISSSGTGTSYADSVKGRFTISRDNAKNTVYLQMNSLKPEDTGVYYCAADYRDYPDSAYYYWGQGTQVTVSS
polyreactivity (PSR sort gate): low polyreactivity

QVQLVESGGGLVQAVGSLRLSCAASGLIFWRNAMGWYRQAPGKERELVAAITYSGSRTYYADSVKGRFTISRDNAKNTVYLQMNSLKPEDTAVYYCNADYYWYPYEDDDWGQGTQVTVSS
polyreactivity (PSR sort gate): low polyreactivity

QVQLVESGGGLVQAVGSLRLSCAASGLTFYSNAMGWYRQAPGTERELVATISQDGGRTYADSVKGLFTISRDNAKNTVYFQMNSLKPEDTAVYYCAADYSGNYDFGYWGQGNQVTVSS
polyreactivity (PSR sort gate): low polyreactivity

QVQLVESGGGLVQAVGSLRLSCAASGRTFGNYAMGWYRQAPGKERELVAAISRSGASTYYADSVKGRFTISRDNAKNSVYLQMNSLKPEDTAVYYCAARVLKPFKYGYWGQGTQVTVSS
polyreactivity (PSR sort gate): high polyreactivity

QVQLVESGGGLVQAVGSLRLSCAASGRTFNSYTMGWYRQAPGKERELVAAISSGGSTTYADSVKGRFTISRDNAKNTVYLQMNSLKPEDTAVYYCAAGLVYRGYRRDYWGQGTQVTVSS
polyreactivity (PSR sort gate): low polyreactivity

QVQLVESGGGLVQAVGSLRLSCAASGRTFYRYAMGWYRQAPGKERELVASITRRGGNTYYADSVKGRFTISRDNAKNTVYLQMNSLKPEDTAVYYCAAQSLHPGNWGQGTQVTVSS
polyreactivity (PSR sort gate): high polyreactivity

QVQLVESGGGLVQAVGSLRLSCAASGSTLSANAMGWYRQAPGKEWELVAAISWNGGCTYYADSVKGRFTISRDNAKNTVYLQMNSLKPEDTAVYYCAAEYIVTYEYWYFGYDYWGQGTQVTVSS
polyreactivity (PSR sort gate): low polyreactivity

QVQLVESGGGLVQAVGSLRLSCAASGSTLYRYALGWYRQAPGKARELDAAISSSGGSTYYADSVKGRFTISRDNAKNTVYLQMNSLKPEDTEVYYCARVARASGVRWYYYWGQGTQVTVSS
polyreactivity (PSR sort gate): high polyreactivity

QVQLVESGGGLVQAVGSLRLSCAASVFIFPYYDMGWYRQAPGKEREFVAAITKSGGRTYYADSVKGRFTISRDNAKNTVYLHMNSLKPEDTAVYYCNADDPDYLVSYRYDYWGLGTQVTVSS
polyreactivity (PSR sort gate): low polyreactivity

QVQLVESGGGLVQAVGSLRLSCASSGYTFDYYTMGWYRQAPGKERELVARITASGGSTYYADSVKGRFTISRDNAKNTVYLQMNSLKPEDTAVYYCAKAWYRYSRFDYWGQGTQVTVSS
polyreactivity (PSR sort gate): high polyreactivity

QVQLVESGGGLVQAVGTLRLSCAASGSIFGYNAMGWYRHAPAKEREFVAAIRWSSGSTYYADSVKGRFTISRDNAMNTVFLQMNSLKPEDTAVNYCATRQTYLYWGQGTQVTVSS
polyreactivity (PSR sort gate): high polyreactivity

QVQLVESGGGLVQAVGTLRLTCAASGITFNVNAMGWYRQEPGKERELVARITTSGGSTSYADSVKGRFTISRDNAYNTVYLQMNSLKPEDTAVYYCAADRARYFSEYDYWGQGTQVTVSS
polyreactivity (PSR sort gate): low polyreactivity

QVQLVESGGGLVQAVVSLRLSCADTGFTFRRYAMGWDRQAPGKERELVAVITTAGSTNYADSVKGRFTISRDNAKNTVYLKMNSLKPEDTAVYYCATDNGTRKRRYDYWGQGTQVTVSS
polyreactivity (PSR sort gate): low polyreactivity

QVQLVESGGGLVQEGCSLRLICAASGSIFGYYAMGWYRQAPGKERELVAAISTAGSTNYADSVKGRFTISRDNAKNTVYLQMNSLKPEDTAVYYCAKKSSWYYPERFDYWGQGTQVTVSS
polyreactivity (PSR sort gate): low polyreactivity
